# Legend:
# human factor D [1] = target: T1, human factor D (human, UniProt P00746 26-253); experiment: cell-based or functional assay
# human factor D [2] = target: T1, human factor D; experiment: SPR, KD compared with AFD.v14
# Method: The flow rate was 30 μL/min, the running buffer was HBS-P+, the temperature of analysis was 25° C., real-time reference cell subtraction was employed, and dissociation following factor D injection was followed for 10 minutes. After subtraction of the sensorgram observed for injection of running buffer, data were analyzed according to a 1:1 model using BiaEval software v4.1 (GE Healthcare) to extract the kinetics and affinity constants.
# T1 sequence (P00746 26-253 limits assumed): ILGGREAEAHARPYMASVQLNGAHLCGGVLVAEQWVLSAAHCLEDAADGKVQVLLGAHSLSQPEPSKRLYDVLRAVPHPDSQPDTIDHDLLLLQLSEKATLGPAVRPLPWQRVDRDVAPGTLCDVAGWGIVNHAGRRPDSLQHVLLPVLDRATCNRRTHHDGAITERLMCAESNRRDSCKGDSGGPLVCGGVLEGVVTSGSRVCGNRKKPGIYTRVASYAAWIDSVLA
Binder,IC50 (nM) AP Hemolysis (human factor D [1]) [nM],fold decrease in affinity for fD against SIESD.N103S (AFD.v14) (human factor D [2]) [fold]
"AFD.v7 (TM.D92E; VL-D30E:D31S VH-D62E VL-D92E) (Fab, V domains shown) VH: EVQLVQSGPELKKPGASVKVSCKASGYTFTNYGMNWVRQAPGQGLEWMGWINTYTGETTYAEDFKGRFVFSLDTSVSTAYLQISSLKAEDTAVYYCEREGGVNNWGQGTLVTVSS VL: DIQVTQSPSSLSASVGDRVTITCITSTDIESDMNWYQQKPGKVPKLLISGGNTLRPGVPSRFSGSGSGTDFTLTISSLQPEDVATYYCLQSESLPYTFGQGTKVEIKR",3.8,
"AFD.v15 (SIESD.N103S.D92E; VL-D28S:D30E:D31S:D92E VH-D62E:N103S) (Fab, V domains shown, Fab variant) VH: EVQLVQSGPELKKPGASVKVSCKASGYTFTNYGMNWVRQAPGQGLEWMGWINTYTGETTYAEDFKGRFVFSLDTSVSTAYLQISSLKAEDTAVYYCEREGGVSNWGQGTLVTVSS VL: DIQVTQSPSSLSASVGDRVTITCITSTSIESDMNWYQQKPGKVPKLLISGGNTLRPGVPSRFSGSGSGTDFTLTISSLQPEDVATYYCLQSESLPYTFGQGTKVEIKR",,4
"AFD.v8 (SIESD; VL-D28S:D30E:D31S VH-D62E) (Fab, V domains shown) VH: EVQLVQSGPELKKPGASVKVSCKASGYTFTNYGMNWVRQAPGQGLEWMGWINTYTGETTYAEDFKGRFVFSLDTSVSTAYLQISSLKAEDTAVYYCEREGGVNNWGQGTLVTVSS VL: DIQVTQSPSSLSASVGDRVTITCITSTSIESDMNWYQQKPGKVPKLLISGGNTLRPGVPSRFSGSGSGTDFTLTISSLQPEDVATYYCLQSDSLPYTFGQGTKVEIKR",4.2,
"AFD.v14 (SIESD.N103S; VL-D28S:D30E:D31S VH-D62E VH-N103S) (Fab, V domains shown) VH: EVQLVQSGPELKKPGASVKVSCKASGYTFTNYGMNWVRQAPGQGLEWMGWINTYTGETTYAEDFKGRFVFSLDTSVSTAYLQISSLKAEDTAVYYCEREGGVSNWGQGTLVTVSS VL: DIQVTQSPSSLSASVGDRVTITCITSTSIESDMNWYQQKPGKVPKLLISGGNTLRPGVPSRFSGSGSGTDFTLTISSLQPEDVATYYCLQSDSLPYTFGQGTKVEIKR",4.1,

# — US20160017052A1 (Genentech, published 2016)
